In assay [1] the target is protein A (UniProt P38507). In words: phage ELISA on protein A, heated 80 C against unheated, three data points. On the technique in general: An ELISA detects its analyte on a solid surface through an enzyme-linked reagent.
The target of assay [2] is protein A (UniProt P38507). In words: phage ELISA screen on protein A, heated 80 C against unheated (Section 4); mean of clones with this mutation.

Sequence of DP47 F100nV (VH): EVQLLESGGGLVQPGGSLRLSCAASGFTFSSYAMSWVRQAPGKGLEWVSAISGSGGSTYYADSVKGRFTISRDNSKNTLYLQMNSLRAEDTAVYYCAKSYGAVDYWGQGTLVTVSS

On to DP47 F100nV, for which the Refoldability on phage (protein A binding retained after heating) in assay [1] came to 2%.

In turn, DP47 F100nV/Y102S displayed a Refoldability on phage (protein A binding retained after heating) in assay [1] of 2%. In the case of DP47-F27C, the mean % refolding (pA-ELISA) in assay [2] was 56%. In assay [2], DP47-G54P displayed a mean % refolding (pA-ELISA) of 28%.

Values taken from patent US20090005257A1.
